The record followed here is the Human Domainome abundance scans (Beltran et al. 2025).

± gives the uncertainty stated by the source.

The nature of this data set: abundance fitness (aPCA) (normalised: wild type 0, dead -1); higher = more abundant; growth selection in yeast, the domain comes from the species named. The conditions noted are these: Homo sapiens.
For the substance “Scaffold attachment factor B1 M58C, Q15424”, the abundance fitness is -0.289 ± 0.083.
In turn, “Scaffold attachment factor B1 M58D, Q15424” registered an abundance fitness of -0.582 ± 0.078.
“Scaffold attachment factor B1 M58F, Q15424” showed an abundance fitness of -0.204 ± 0.075.
Substance “Scaffold attachment factor B1 M58G, Q15424” showed an abundance fitness of -0.368 ± 0.056.
The substance “Scaffold attachment factor B1 M58H, Q15424” yielded an abundance fitness of -0.344 ± 0.079.
In turn, “Scaffold attachment factor B1 M58I, Q15424” came in with an abundance fitness of -0.151 ± 0.071.
Substance “Scaffold attachment factor B1 M58K, Q15424” registered an abundance fitness of -0.253 ± 0.086.
In the case of “Scaffold attachment factor B1 M58L, Q15424” it was -0.106 ± 0.058; in that of “Scaffold attachment factor B1 M58N, Q15424”, -0.37 ± 0.097; in that of “Scaffold attachment factor B1 M58P, Q15424”, -0.598 ± 0.1.
For the substance “Scaffold attachment factor B1 M58R, Q15424”, the abundance fitness is -0.205 ± 0.059.
Substance “Scaffold attachment factor B1 M58S, Q15424” had an abundance fitness of -0.16 ± 0.064.
“Scaffold attachment factor B1 M58V, Q15424” had an abundance fitness of -0.114 ± 0.064.
In turn, “Scaffold attachment factor B1 M58W, Q15424” returned an abundance fitness of -0.439 ± 0.069.
“Scaffold attachment factor B1 M58Y, Q15424” showed an abundance fitness of -0.341 ± 0.079.
The substance “Scaffold attachment factor B1 N47A, Q15424” displayed an abundance fitness of -0.236 ± 0.056.
“Scaffold attachment factor B1 N47C, Q15424” came in with an abundance fitness of -0.274 ± 0.073.
In turn, “Scaffold attachment factor B1 N47D, Q15424” came in with an abundance fitness of -0.167 ± 0.085.
In the case of “Scaffold attachment factor B1 N47E, Q15424” it was -0.168 ± 0.074.
In the case of “Scaffold attachment factor B1 N47H, Q15424” it was -0.349 ± 0.076; in that of “Scaffold attachment factor B1 N47I, Q15424”, -0.822 ± 0.09.
“Scaffold attachment factor B1 N47K, Q15424” returned an abundance fitness of -0.349 ± 0.1.
In the case of “Scaffold attachment factor B1 N47L, Q15424” it was -0.365 ± 0.061.
On to “Scaffold attachment factor B1 N47M, Q15424”, for which the abundance fitness was -0.224 ± 0.073.
For “Scaffold attachment factor B1 N47P, Q15424”, the abundance fitness is -1.01 ± 0.11.
Turning to “Scaffold attachment factor B1 N47Q, Q15424”, the abundance fitness was -0.227 ± 0.067.
The substance “Scaffold attachment factor B1 N47R, Q15424” returned an abundance fitness of -0.207 ± 0.065.
As for “Scaffold attachment factor B1 N47S, Q15424”, the abundance fitness was -0.236 ± 0.07.
With “Scaffold attachment factor B1 N47T, Q15424”, the abundance fitness was -0.331 ± 0.066.
In the case of “Scaffold attachment factor B1 N47V, Q15424” it was -0.448 ± 0.056.
“Scaffold attachment factor B1 N47W, Q15424” came in with an abundance fitness of -0.593 ± 0.079.
On to “Scaffold attachment factor B1 N47Y, Q15424”, for which the abundance fitness is -0.483 ± 0.088.
In turn, “Scaffold attachment factor B1 N53A, Q15424” had an abundance fitness of -0.175 ± 0.056.
“Scaffold attachment factor B1 N53C, Q15424” showed an abundance fitness of -0.138 ± 0.083.
The substance “Scaffold attachment factor B1 N53D, Q15424” returned an abundance fitness of -0.038 ± 0.068.
“Scaffold attachment factor B1 N53E, Q15424”: the abundance fitness was -0.198 ± 0.087.
In the case of “Scaffold attachment factor B1 N53F, Q15424”, the abundance fitness is -0.354 ± 0.048.
In the case of “Scaffold attachment factor B1 N53G, Q15424” it was -0.08 ± 0.057; in that of “Scaffold attachment factor B1 N53H, Q15424”, -0.127 ± 0.071.
The substance “Scaffold attachment factor B1 N53I, Q15424” yielded an abundance fitness of -0.27 ± 0.084.
Turning to “Scaffold attachment factor B1 N53M, Q15424”, the abundance fitness is -0.376 ± 0.063.
The substance “Scaffold attachment factor B1 N53P, Q15424” gave an abundance fitness of -0.284 ± 0.06.
With “Scaffold attachment factor B1 N53Q, Q15424”, the abundance fitness is -0.288 ± 0.089.
As for “Scaffold attachment factor B1 N53R, Q15424”, the abundance fitness is -0.067 ± 0.049.
On to “Scaffold attachment factor B1 N53S, Q15424”, for which the abundance fitness was -0.085 ± 0.051.
For “Scaffold attachment factor B1 N53V, Q15424”, the abundance fitness is -0.158 ± 0.056.
Substance “Scaffold attachment factor B1 N53W, Q15424” registered an abundance fitness of -0.712 ± 0.059.
In the case of “Scaffold attachment factor B1 N71A, Q15424” it was -0.329 ± 0.071; in that of “Scaffold attachment factor B1 N71C, Q15424”, -0.207 ± 0.07.
On to “Scaffold attachment factor B1 N71D, Q15424”, for which the abundance fitness is -0.247 ± 0.1.
For the substance “Scaffold attachment factor B1 N71E, Q15424”, the abundance fitness is -0.36 ± 0.072.
In the case of “Scaffold attachment factor B1 N71F, Q15424” it was -0.338 ± 0.068.
“Scaffold attachment factor B1 N71H, Q15424”: the abundance fitness is -0.309 ± 0.1.
In the case of “Scaffold attachment factor B1 N71I, Q15424” it was -0.468 ± 0.1; in that of “Scaffold attachment factor B1 N71K, Q15424”, -0.253 ± 0.073.
In turn, “Scaffold attachment factor B1 N71L, Q15424” yielded an abundance fitness of -0.299 ± 0.062.
In the case of “Scaffold attachment factor B1 N71M, Q15424” it was -0.3 ± 0.057; in that of “Scaffold attachment factor B1 N71P, Q15424”, -0.365 ± 0.076.
In the case of “Scaffold attachment factor B1 N71Q, Q15424” it was -0.263 ± 0.095.
“Scaffold attachment factor B1 N71S, Q15424” yielded an abundance fitness of -0.19 ± 0.063.
“Scaffold attachment factor B1 N71T, Q15424” gave an abundance fitness of -0.267 ± 0.092.
On to “Scaffold attachment factor B1 N71V, Q15424”, for which the abundance fitness is -0.211 ± 0.055.
Turning to “Scaffold attachment factor B1 N71W, Q15424”, the abundance fitness is -0.39 ± 0.057.
On to “Scaffold attachment factor B1 N71Y, Q15424”, for which the abundance fitness was -0.448 ± 0.094.
The substance “Scaffold attachment factor B1 P72A, Q15424” had an abundance fitness of -0.187 ± 0.07.
As to “Scaffold attachment factor B1 P72C, Q15424”, the abundance fitness was -0.103 ± 0.061.
With “Scaffold attachment factor B1 P72D, Q15424”, the abundance fitness was -0.407 ± 0.1.
“Scaffold attachment factor B1 P72E, Q15424” returned an abundance fitness of -0.302 ± 0.068.
In the case of “Scaffold attachment factor B1 P72F, Q15424” it was -0.185 ± 0.098.
In the case of “Scaffold attachment factor B1 P72G, Q15424” it was -0.11 ± 0.048; in that of “Scaffold attachment factor B1 P72H, Q15424”, -0.149 ± 0.073; in that of “Scaffold attachment factor B1 P72I, Q15424”, -0.382 ± 0.11.
As for “Scaffold attachment factor B1 P72K, Q15424”, the abundance fitness is -0.423 ± 0.091.
In the case of “Scaffold attachment factor B1 P72L, Q15424” it was -0.14 ± 0.048; in that of “Scaffold attachment factor B1 P72M, Q15424”, -0.362 ± 0.08.
In the case of “Scaffold attachment factor B1 P72N, Q15424” it was -0.374 ± 0.11.
In the case of “Scaffold attachment factor B1 P72Q, Q15424” it was -0.432 ± 0.098.
“Scaffold attachment factor B1 P72R, Q15424” returned an abundance fitness of -0.23 ± 0.052.
With “Scaffold attachment factor B1 P72S, Q15424”, the abundance fitness was -0.197 ± 0.058.
“Scaffold attachment factor B1 P72T, Q15424”: the abundance fitness is -0.329 ± 0.085.
On to “Scaffold attachment factor B1 P72V, Q15424”, for which the abundance fitness was -0.116 ± 0.053.
The substance “Scaffold attachment factor B1 P72W, Q15424” registered an abundance fitness of -0.296 ± 0.068.
On to “Scaffold attachment factor B1 P72Y, Q15424”, for which the abundance fitness was -0.176 ± 0.06.
The substance “Scaffold attachment factor B1 R29A, Q15424” displayed an abundance fitness of -0.465 ± 0.072.
On to “Scaffold attachment factor B1 R29C, Q15424”, for which the abundance fitness is -0.107 ± 0.073.
As to “Scaffold attachment factor B1 R29D, Q15424”, the abundance fitness was -0.37 ± 0.091.
Turning to “Scaffold attachment factor B1 R29E, Q15424”, the abundance fitness was -0.143 ± 0.068.
Take “Scaffold attachment factor B1 R29F, Q15424”: the abundance fitness is -0.03 ± 0.06.
“Scaffold attachment factor B1 R29G, Q15424” returned an abundance fitness of -0.18 ± 0.049.
“Scaffold attachment factor B1 R29H, Q15424” yielded an abundance fitness of -0.262 ± 0.088.
For “Scaffold attachment factor B1 R29I, Q15424”, the abundance fitness was -0.019 ± 0.062.
In the case of “Scaffold attachment factor B1 R29K, Q15424” it was -0.086 ± 0.083; in that of “Scaffold attachment factor B1 R29L, Q15424”, -0.134 ± 0.048.
For “Scaffold attachment factor B1 R29M, Q15424”, the abundance fitness came out at 0.03 ± 0.077.
With “Scaffold attachment factor B1 R29N, Q15424”, the abundance fitness is -0.408 ± 0.1.
With “Scaffold attachment factor B1 R29P, Q15424”, the abundance fitness is -0.364 ± 0.063.
